From patent publication US20240262884A1 (University of Pennsylvania, published 2024)

Assays:
[1] = molecular target: T1, human GFRα1 (R&D Systems, Fc-fusion protein) (human, UniProt P56159 25-429, limits assumed); experiment: ELISA with soluble Fab, HRP-anti human Fab detection (FIG. 3)
T1 construct: not shown: Fc part of the bought fusion protein
T1 sequence (looked up): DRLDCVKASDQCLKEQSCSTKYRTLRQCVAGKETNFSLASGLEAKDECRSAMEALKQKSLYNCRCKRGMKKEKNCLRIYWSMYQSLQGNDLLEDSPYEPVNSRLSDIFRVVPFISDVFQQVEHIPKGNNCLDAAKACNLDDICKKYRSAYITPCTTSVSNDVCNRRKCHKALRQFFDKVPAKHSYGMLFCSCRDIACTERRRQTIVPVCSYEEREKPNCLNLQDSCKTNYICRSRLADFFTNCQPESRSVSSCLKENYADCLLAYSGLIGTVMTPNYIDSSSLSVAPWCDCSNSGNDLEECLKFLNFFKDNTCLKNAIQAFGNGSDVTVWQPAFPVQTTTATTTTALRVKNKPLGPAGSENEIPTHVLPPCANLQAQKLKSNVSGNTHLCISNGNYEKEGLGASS

[2] = molecular target: T2, human GFRα2 (R&D Systems, Fc-fusion protein) (human, UniProt O00451 22-441, limits assumed); experiment: as above
T2 construct: not shown: Fc part of the bought fusion protein
T2 sequence (looked up): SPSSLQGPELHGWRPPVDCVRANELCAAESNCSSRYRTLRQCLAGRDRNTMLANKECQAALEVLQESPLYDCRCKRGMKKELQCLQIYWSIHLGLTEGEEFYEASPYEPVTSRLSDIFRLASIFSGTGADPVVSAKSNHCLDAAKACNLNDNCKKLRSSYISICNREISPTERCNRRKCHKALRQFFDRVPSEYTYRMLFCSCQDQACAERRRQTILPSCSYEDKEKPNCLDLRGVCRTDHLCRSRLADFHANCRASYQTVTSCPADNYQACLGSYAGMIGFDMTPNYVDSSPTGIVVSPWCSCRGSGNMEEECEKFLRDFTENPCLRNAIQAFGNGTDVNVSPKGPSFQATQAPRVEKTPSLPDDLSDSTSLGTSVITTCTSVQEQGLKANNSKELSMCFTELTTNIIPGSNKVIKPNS

[3] = molecular target: T3, human GFRα3 (R&D Systems, Fc-fusion protein) (human, UniProt O60609 32-382, limits assumed); experiment: as above
T3 construct: not shown: Fc part of the bought fusion protein
T3 sequence (looked up): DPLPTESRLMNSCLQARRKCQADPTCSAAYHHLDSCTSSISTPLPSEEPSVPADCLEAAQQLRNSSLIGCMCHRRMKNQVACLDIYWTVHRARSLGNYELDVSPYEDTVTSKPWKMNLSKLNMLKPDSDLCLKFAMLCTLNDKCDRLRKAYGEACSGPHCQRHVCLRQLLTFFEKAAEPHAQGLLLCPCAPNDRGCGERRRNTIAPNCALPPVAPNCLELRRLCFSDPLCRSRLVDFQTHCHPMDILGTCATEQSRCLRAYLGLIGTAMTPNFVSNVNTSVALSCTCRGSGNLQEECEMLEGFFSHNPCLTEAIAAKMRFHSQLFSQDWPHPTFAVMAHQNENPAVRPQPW

[4] = molecular target: T4, GFRα4 isoform b human Fc bivalent fusion protein (Asn24-Val274, TEV site and linker, human IgG1 Fc fragment); … (human); experiment: ELISA, soluble recombinant human/rabbit chimeric Fab, HRP-anti human Fab detection (FIG. 3)
T4 construct: also called GFRα4b; GFRalpha4 isoform b

[5] = molecular target: T5, GFRα4 isoform a human Fc bivalent fusion protein (Asn24-Ser245, Factor Xa site, human IgG1 Fc fragment, … (human)); experiment: as above
T5 construct: also called GFRα4a; GFRalpha4 isoform a
T5 chain: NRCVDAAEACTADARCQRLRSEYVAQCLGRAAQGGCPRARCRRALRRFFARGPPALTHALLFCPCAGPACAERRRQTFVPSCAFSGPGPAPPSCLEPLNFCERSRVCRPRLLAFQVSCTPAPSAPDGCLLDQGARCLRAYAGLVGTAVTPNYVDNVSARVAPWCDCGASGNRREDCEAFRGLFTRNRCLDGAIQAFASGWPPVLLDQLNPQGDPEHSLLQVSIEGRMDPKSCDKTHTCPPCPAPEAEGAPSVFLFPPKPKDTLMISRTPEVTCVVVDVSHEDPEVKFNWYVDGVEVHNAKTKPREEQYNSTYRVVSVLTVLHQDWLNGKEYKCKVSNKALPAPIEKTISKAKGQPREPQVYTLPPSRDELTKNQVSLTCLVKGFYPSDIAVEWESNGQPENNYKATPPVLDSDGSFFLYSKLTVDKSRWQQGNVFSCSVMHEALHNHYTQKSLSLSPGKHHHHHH

B1: P4-6 recombinant human/rabbit chimeric Fab (Fab, V domains shown)
VH: EQLKESGGGLFKPTDTLTLTCTVSGFSLSYYGVNWVRQAPGNGLEWIGTIGGSGDTYYASWAKSRSTIIRNTNENTVTLKMTSLTAADTATYFCVRYANIGYEYFNVWGPGTLVTVSS
VL: QFVLTQSPSASAALGASAKLTCTLSSAHKTYTIDWYQQQKGKAPRYLIQVKSDGTYTKATGVPDRFSGSSSGADRYLIIPSVQADDEADYYCGTDYTGGYVFGGGTQLTVT
notes: Both formats are written under this one molecule; also called Fab P4-6; P4-6 phage antibody
binding result [1]: no binding
binding result [2]: no binding
binding result [3]: no binding
binding result [4]: binds
binding result [5]: binds

B2: P4-10 recombinant human/rabbit chimeric Fab (Fab, V domains shown)
VH: QSVKESEGGLFKPTDTLTLTCTVSGFSLSRHALTWVRQAPGNGLEWIGAIDNAGTTYYASWAKSRSTITRNTDLHTVTLKMTSLTASDTATYFCARVFYDINSGYYLDGMDLWGPGTLVTVSS
VL: QFVLTQSPSVSAALGASAKLTCTLSSAHKTYTIDWYQQQQGEAPRYLMQVKSDGSYTKGTGVPDRFSGSSSGADRYLIIPSVQADDEAGYVCGADDNGGYVFGGGTQLTVT
notes: Both formats are written under this one molecule; also called Fab P4-10; P4-10 phage antibody
binding result [1]: no binding
binding result [2]: no binding
binding result [3]: no binding
binding result [4]: binds
binding result [5]: binds
